Results published in PMC11362559.

Target: biotinylated I-A^b protein (SPR) (mouse)
Assay: SPR

Substance “mLAG3^ΔL1 (Loop 1 deletion construct of mouse LAG3) (from UniProt Q61790) (receptor)” has a Kd of 14.8 µM.
